According to patent US20220056149A1 (LUMOSA THERAPEUTICS, published 2022):
Numbering of substitutions follows the chain as printed.

What was measured:
[1] = molecular target: T1, human ErbB2/Her2-Fc (Acro biosystem) (human, UniProt P04626 23-652); experiment: ELISA, plate coated with human ErbB2/Her2-Fc
T1 construct: Bought; also called human HER2; not shown: Fc part of a bought fusion protein

[2] = molecular target: T2, hEGFR-Fc (Sino Biological) (human, UniProt P00533 25-645); experiment: ELISA, plate coated with human EGFR-Fc, anti-His-HRP detection
T2 construct: Bought; also called human EGFR; humans EGFR-Fc protein; not shown: Fc part of a bought fusion protein

[3] = molecular target: T3, Human VEGFR2-Fc (Sino Biological) (human, UniProt P35968 20-764); experiment: antigen binding activity, summary table; assay not named on the sheet
T3 construct: Bought; not shown: Fc part of a bought fusion protein

[4] = molecular target: T4, human ErbB3/Her3-Fc (Acro biosystem) (human, UniProt P21860 20-643); experiment: ELISA, plate coated with human ErbB3/Her3-Fc
T4 construct: Bought; also called human HER3; not shown: Fc part of a bought fusion protein

[5] = molecular target: T2, hEGFR-Fc (Sino Biological); experiment: antigen binding activity, summary table; assay not named on the sheet
[6] = molecular target: T3, Human VEGFR2-Fc (Sino Biological); experiment: ELISA, plate coated with human VEGFR2-Fc 1ug/ml, anti-His-HRP detection
[7] = molecular target: T5, human CEACAM5-Fc (novoprotein) (human, UniProt P06731 35-685, limits assumed); experiment: antigen binding activity, summary table; assay not named on the sheet
T5 construct: Bought; not shown: Fc part of a bought fusion protein
T5 sequence (looked up): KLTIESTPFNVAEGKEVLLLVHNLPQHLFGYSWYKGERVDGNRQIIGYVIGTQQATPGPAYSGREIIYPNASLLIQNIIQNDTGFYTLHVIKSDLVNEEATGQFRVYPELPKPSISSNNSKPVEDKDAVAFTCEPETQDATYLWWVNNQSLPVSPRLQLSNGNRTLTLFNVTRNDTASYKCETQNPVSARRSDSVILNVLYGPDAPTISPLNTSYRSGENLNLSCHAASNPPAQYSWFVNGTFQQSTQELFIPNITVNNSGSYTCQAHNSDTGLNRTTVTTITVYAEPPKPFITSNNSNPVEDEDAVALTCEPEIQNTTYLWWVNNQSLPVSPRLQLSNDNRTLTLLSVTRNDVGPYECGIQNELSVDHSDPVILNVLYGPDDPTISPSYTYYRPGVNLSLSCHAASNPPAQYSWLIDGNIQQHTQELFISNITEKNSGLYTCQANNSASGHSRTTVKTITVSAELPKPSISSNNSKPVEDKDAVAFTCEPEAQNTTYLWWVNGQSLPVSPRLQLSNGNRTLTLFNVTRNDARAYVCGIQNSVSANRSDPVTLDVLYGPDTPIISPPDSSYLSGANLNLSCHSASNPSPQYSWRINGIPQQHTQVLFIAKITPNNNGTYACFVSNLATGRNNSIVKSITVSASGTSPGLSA

T3 sequence (P35968 20-764 limits assumed): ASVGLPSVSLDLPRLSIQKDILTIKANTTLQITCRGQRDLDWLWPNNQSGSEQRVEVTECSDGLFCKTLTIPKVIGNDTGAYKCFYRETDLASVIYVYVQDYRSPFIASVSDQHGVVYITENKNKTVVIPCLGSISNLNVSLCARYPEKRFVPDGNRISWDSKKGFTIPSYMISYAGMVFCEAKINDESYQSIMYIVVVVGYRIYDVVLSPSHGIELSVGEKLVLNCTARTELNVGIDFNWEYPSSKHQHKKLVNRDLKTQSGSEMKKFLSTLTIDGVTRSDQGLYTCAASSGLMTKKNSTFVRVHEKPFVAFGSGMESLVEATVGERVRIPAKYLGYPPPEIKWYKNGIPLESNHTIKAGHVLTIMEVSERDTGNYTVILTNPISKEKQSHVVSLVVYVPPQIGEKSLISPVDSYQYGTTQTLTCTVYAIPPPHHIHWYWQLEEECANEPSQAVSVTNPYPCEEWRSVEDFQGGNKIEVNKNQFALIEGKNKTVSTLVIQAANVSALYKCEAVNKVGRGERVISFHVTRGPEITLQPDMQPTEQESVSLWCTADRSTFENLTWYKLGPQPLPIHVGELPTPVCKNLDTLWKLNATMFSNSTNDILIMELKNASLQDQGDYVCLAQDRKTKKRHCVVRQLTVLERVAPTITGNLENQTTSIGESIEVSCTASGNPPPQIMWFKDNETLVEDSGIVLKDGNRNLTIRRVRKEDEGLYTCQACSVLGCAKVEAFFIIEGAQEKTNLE

B1: 2D3-CDoem3-H (VHH)
VHH: EVQLVESGGSLVQPGGSLRLSCAASGFTFDDYAMSWVRQVPGKGLEWVSSINWSGTHTDYADSVKGRFTISRNNANNTLYLQMNSLKSEDTAVYYCAKNWRDAGTTWFEKSGSAGQGTQVTVSS
notes: sdAb-cytosine deaminase fusion with C-terminal His-tag; Built from parts
With B1 the “EC50 (read off the curve)” value [1] was ~0.1 nM.

B2: VHH122-CD-H (VHH)
VHH: EVQLQESGGGLVQAGDSLRLSCLVSGRSFNSYTMGWFRQAPGKEREFVAAILWSGPTTYYADSVKGRFTISRDNAKNTVYLQMNSLKPEDTAVYYCAAALGVLVLAPGNVYSYWGQGTQVTVSS
notes: as for B1
For B2, the “EC50 (read off the curve)” value [2] was ~0.8 nM.

B3: 3VGR17-CD-H (VHH)
VHH: QVQLQESGGGSVQAGGSLRLSCAASGYTYCSYDMGWYRQAPGKEREFVSAIDNYGRTGYADSVKGRFTISQDNAKNTSYLQMNSLKPEDTAIYYCKVDVCPDPSRPGRPGYWGQGTQVTVSS
B3: binds [3].

B4: BCD090-M2-CDoem3-H (VHH)
VHH: QVQLVQSGGGLVQAGGSLRLSCAFSGRTFSMYTMGWFRQAPGKEREFVAANRGRGLSPDIADSVNGRFTISRDNAKNTLYLQMDSLKPEDTAVYYCAADLQYGSSWPQRSSAEYDYWGQGTTVTVSS
B4 was tested, and the “EC50 (read off the curve)” value [4] was ~0.5 nM.

B5: Inherbin3-CD-H (other)
antigen binding fragment-CD fusion: MLVYNKLTFQLEPNPHTKGGGGSGGGGSGGGGSVTGGMASKWDQKGMDIAYEEAALGYKEGGVPIGGCLINNKDGSVLGRGHNMRFQKGSATLHGEISTLENCGRLEGKVYKDTTLYTTLSPCDMCTGAIIMYGIPRCVVGENVNFKSKGEKYLQTRGHEVVVVDDERCKKIMKQFIDERPQDWFEDIGEGSSHHHHHH
B5: binds [5].

B6: Inherbin1-CD-H (other)
antigen binding fragment-CD fusion: B5 antigen binding fragment-CD fusion with L2M, V3L, K6P, L7T, F9Y, L11M, E12D, P13V, H16E, T17G
B6: no binding [5].

B7: 47D5-CDoem3-H (VHH)
VHH: KVQLVESGGGLVQPGGSLRLSCAASGSIFGFNDMAWYRQAPGKQRELVALISRVGVTSSADSVKGRFTISRVNAKDTVYLQMNSLKPEDTAVYYCYMDQRLDGSTLAYWGQGTQVTVSS
notes: as for B1
For B7, the “EC50 (read off the curve)” value [1] was ~0.2 nM.

B8: DOM-16-39-CD-H (VHH)
sdAb-CD fusion: MDIQMTQSPTSLSASVGDRVTITCRASQWIGNLLDWYQQKPGEAPKLLIYYASFLQSGVPSRFSGGGFGTDFTLTISSLQPEDFATYYCQQANPAPLTFGQGTKVEIKRGGGGSGGGGSGGGGSVTGGMASKWDQKGMDIAYEEAALGYKEGGVPIGGCLINNKDGSVLGRGHNMRFQKGSATLHGEISTLENCGRLEGKVYKDTTLYTTLSPCDMCTGAIIMYGIPRCVVGENVNFKSKGEKYLQTRGHEVVVVDDERCKKIMKQFIDERPQDWFEDIGEGSSHHHHHH
B8: binds [5].

B9: 4VGR38-CD-H (VHH)
VHH: QVQLQESGGGSVQAGGSLTLSCEVSGYSVNSNSMGWFRQAPGKEREGVAGINEGGVSTYYANFVQGRFTISQDNAKNMVYLQMNSLKPEDTAIYYCAAGAPDPPPLIESIVKYWGQGTQVTVSS
notes: as for B1
B9: binds [6].

B10: NbCEA5-CDoem3-H (VHH)
VHH: QVQLVESGGGSVQAGGSLRLSCAASGDTYGSYWMGWFRQAPGKEREGVAAINRGGGYTVYADSVKGRFTISRDTAKNTVYLQMNSLRPDDTADYYCAASGVLGGLHEDWFNYWGQGTQVTVSS
notes: as for B1
B10: binds [7].

B11: 3VGR19-CD-H (VHH)
VHH: QVQLQESGGGSVQAGGSLRLSCVASGYSVSKNSMGWFRQAPGKEREGVAGINEGGTATYYANSVKGRFTISQDNAKNTVYLQMNTLKPEDTAIYYCAAGSPDPPPLIESVVKYWGQGTQVTVSS
notes: sdAb-cytosine deaminase fusion with C-terminal His-tag, made in E. coli; Built from parts; An N-terminal Met may precede the sdAb
B11: binds [3].

B12: 3VGR10-CD-H (VHH)
VHH: B11 VHH with K76R
B12: binds [3].

B13: 4VGR17-CD-H (VHH)
VHH: B11 VHH with E53Y, S109G
notes: as for B1
B13 was tested, and the “EC50 (read off the curve)” value [6] was ~0.02 µg/mL.

B14: GE10-CD-H (other)
antigen binding fragment-CD fusion: MLHLWVPEPWTQTGGGGSGGGGSGGGGSVTGGMASKWDQKGMDIAYEEAALGYKEGGVPIGGCLINNKDGSVLGRGHNMRFQKGSATLHGEISTLENCGRLEGKVYKDTTLYTTLSPCDMCTGAIIMYGIPRCVVGENVNFKSKGEKYLQTRGHEVVVVDDERCKKIMKQFIDERPQDWFEDIGEGSSHHHHHH
B14: binds [5].

B15: GE11-CD-H (other)
antigen binding fragment-CD fusion: B14 antigen binding fragment-CD fusion with L2Y, L4W, W5Y, V6G, P7Y, E8T, W10Q, T11N, Q12V, T13I
B15: no binding [5].
